target: KIR-Fc; test: phage ELISA, target-Fc against non-specific control

ELISA ratio (target to background) | Binder
4.17 | SEQ ID NO 37 (designed binder) MGSWLWFKIFLAEIKYFLEALGGSEAELAAFDFEIHAFHVELFAYKGKGNPEVEVLREVAAEIRWDLQAYRHN
8.4 | SEQ ID NO 35 (designed binder) MGSWSEFYNRLDAIESRLLALGGSEAELALFEIQIARFEKVLQAYKGKGNPEVEALRGEARAIFAELYAYRHN
4.24 | SEQ ID NO 36 (designed binder) MGSWYEFYNRLYAIEIRLYALGGSEAELAAFEKEIAAFESELQAYKGKGNPEVERLRVRAAKIRVILQAYRHN

From patent US20180251563A1
